# Biological target: natural class I heavy chain molecules
# Test: binding to class I heavy chain, method not given
substance,measurement,value
recombinant murine β2-microglobulin,affinity against that of human β2-microglobulin,5 times lower

# Source: patent US5917018
